Common to all, as to experiment: SEC
Background: Size exclusion chromatography separates by hydrodynamic size, large species first.

Experiment [1] addresses CckA (WT, N-terminal His-tag in place of its transmembrane helices) (Caulobacter crescentus) (UniProt Q9X688).
Experiment [2] addresses CckA ΔPAS-A (Caulobacter crescentus).
The target of experiment [3] is CckA ΔPAS-A ΔRD (Caulobacter crescentus).
The target of experiment [4] is CckA ΔPAS-A-B ΔRD (Caulobacter crescentus).

“CckA (WT, N-terminal His-tag in place of its transmembrane helices) (from UniProt Q9X688 1-691) (enzyme)” showed a stoichiometry N (CckA per complex) in experiment [1] of 4.

In experiment [2], CckA ΔPAS-A (domain or fragment) registered a stoichiometry N (CckA per complex) of 3.1.

For CckA ΔPAS-A ΔRD (domain or fragment), in experiment [3], the stoichiometry N (CckA per complex) is 2.

In the case of CckA ΔPAS-A-B ΔRD (domain or fragment), the stoichiometry N (CckA per complex) in experiment [4] was found to be 2.

Values taken from paper doi:10.1101/323444.
